Measured values: PMC10691330

Experiments:
Test in all cases: packaging into virions
[1] = molecular target: HIV-1 P capsid protein (p24) (HIV-1 group P)
[2] = molecular target: HIV-1 M capsid protein (p24) (HIV-1 group M)
[3] = molecular target: HIV-1 N capsid protein (p24) (HIV-1 group N)
[4] = molecular target: HIV-1 O capsid protein (p24) (HIV-1 group O)

Sequence of HA-tagged cyclophilin A (CYPA-HA) (P62937 whole entry): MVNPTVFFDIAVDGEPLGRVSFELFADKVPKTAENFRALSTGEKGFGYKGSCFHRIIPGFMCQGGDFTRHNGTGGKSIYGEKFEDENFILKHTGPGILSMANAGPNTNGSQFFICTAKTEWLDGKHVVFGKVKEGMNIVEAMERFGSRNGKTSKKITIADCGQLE

HA-tagged cyclophilin A (CYPA-HA) (from UniProt P62937 1-165) (natural protein)
percent reduction of virion-associated CYPA by 1 µM CsA [1]: 70%
percent reduction of virion-associated CYPA by 1 µM CsA [2]: 40%
percent reduction of virion-associated CYPA by 1 µM CsA [3]: 70%
percent reduction of virion-associated CYPA by 1 µM CsA [4]: 70%
